# Values of other authors, collected in publication PMC4380812.
# Molecular target: HdeA (Escherichia coli) (UniProt P0AES9)
# Sequence of HdeA (P0AES9 22-110): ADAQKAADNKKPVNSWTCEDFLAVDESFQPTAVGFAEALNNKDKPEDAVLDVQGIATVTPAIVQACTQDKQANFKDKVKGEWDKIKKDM
substance,measurement,value
HdeA (from UniProt P0AES9),Kd,1000 nM
